Data on 5 molecules can be found in publication PMC4756840, “The RNA-binding protein LARP1 is a post-transcriptional regulator of survival and tumorigenesis in ovarian cancer”.

Data set [1] concerns the target T1, LARP1 full length (UniProt Q6PKG0-3 1-1019). Kind of data set: EMSA; judged non-specific; Kd only in figure; 20 mM Tris-HCl pH 8, 150 mM NaCl, 10% glycerol, 1 mM DTT, 1 ug BSA, 0.5 ug tRNA, RNA <2 nM, 30 min on ice; native PAGE at 4 C. The note with it: protein: recombinant; tags: N-terminal 6xHis-MBP, removed by TEV cleavage; label: 5'-32P. (In general: A gel shift assay detects complexes by their altered migration in electrophoresis.)

Data set [2] concerns the target T1, LARP1 full length. Kind of data set: competition; vs 32P-RPS6, 1-30 uM cold RNA; 20 mM Tris-HCl pH 8, 150 mM NaCl, 10% glycerol, 1 mM DTT, 1 ug BSA, 0.5 ug tRNA, RNA <2 nM, 30 min on ice; native PAGE at 4 C. The note with it: protein: recombinant; tags: N-terminal 6xHis-MBP, removed by TEV cleavage; label: 5'-32P in direct EMSA.
In data set [3] the target is T1, LARP1 full length. Description: EMSA; tRNA and BSA present; Kd only in figure; 20 mM Tris-HCl pH 8, 150 mM NaCl, 10% glycerol, 1 mM DTT, 1 ug BSA, 0.5 ug tRNA, RNA <2 nM, 30 min on ice; native PAGE at 4 C. The note with it: protein: recombinant; tags: N-terminal 6xHis-MBP, removed by TEV cleavage; label: 5'-32P in direct EMSA.

B1: BCL2 3' UTR construct 4 (ssRNA)
RNA: GCCCUCCAGAUAGCUCAUUUCAUUAAGUUUUUCCCUCCAAGGUAGAAUUUGCAAGAGUGACAGUGGAUUGCAUUUCUUUUGGGGAAGCUUUCUUUUGGUGGUUUUGUUUAUUAUACCUUCUUAAGUUUUCAACCAAGGUUUGCUUUUGUU
Regarding B1, the binding signal with LARP1 full length [1] was ~0.25 affinity relative to BCL2 construct 3.

B2: BCL2 3' UTR construct 1 (ssRNA)
RNA: GGCUCCACCUGGAUGUUCUGUGCCUGUAAACAUAGAUUCGCUUUCCAUGUUGUUGGCCGGAUCACCAUCUGAAGAGCAGACGGAUGGAAAAAGGACCUGAUCAUUGGGGAAGCUGGCUUUCUGGCUGCUGGAGGCUGGGGAGAAGGUGUUCAUUCACUUGCAUUUCUUUGCCCUGGG
For B2, in the data set with LARP1 full length [1], the binding signal is ~0.25 affinity relative to BCL2 construct 3.

B3: BCL2 3' UTR construct 2 (ssRNA)
RNA: GCCCUCCUGCCCUCCUUCCGCGGGGGCUUUCUCAUGGCUGUCCUUCAGGGUCUUCCUGAAAUGCAGUGGUGCUUACGCUCCACCAAGAAAGCAGGAAACCUGUGGUAUGAAGCCAGACCUCCCCGG
In the case of B3, the binding signal with LARP1 full length [1] was ~0.25 affinity relative to BCL2 construct 3.

B4: OAZ1 3' UTR (ssRNA)
RNA: GGCCGCCUCGGGGCUGGGCAUCCGGCCCCUGGGGCCACCCCUUGUCAGCCGGGUGGGUAGGAACCGUAGACUCGCUCAUCUCGCCUGGGUUUGUCCGCAUGUUG
Consider B4, for which the binding result in the data set with LARP1 full length [2] is recorded as “no binding”.

B5: BCL2 3' UTR construct 3 (ssRNA)
RNA: GCCUGUUUUGUCUUUUGUUGUUGUUCAAACGGGAUUCACAGAGUAUUUGAAAAAUGUAUAUAUAUUAAGAGGUCACGGGGGCUAAUUGCUGGCUGGCUGCCUUUUGCUGUGGGGUUUUGUU
Consider B5, for which the binding signal with LARP1 full length [3] was ~4 fold higher affinity than other BCL2 constructs.
